Experimental findings from patent publication US20240270826A1 are described below.

Assay [1] has as its target SARS-CoV-2 spike protein S on live virus, Alpha variant (SARS-CoV-2 (Alpha variant)) (UniProt P0DTC2). The assay is described as follows: cell-based or functional assay.
In assay [2] the target is Human SARS-CoV-2 Delta (B.1.617.2) S (SARS-CoV-2 (Delta variant)) (UniProt P0DTC2). The experiment in a line: flow cytometry SVNA: VHH-Fc inhibits S binding to ACE2 on Vero E6 cells. (In general: In flow cytometry, cells or beads pass a laser one at a time.)
For assay [3], the target named is Human SARS-CoV-2 Gamma (P.1) S (SARS-CoV-2 (Gamma variant)) (UniProt P0DTC2). The assay is described as above.
For assay [4], the target named is Human SARS-CoV-2 Kappa (B.1.617.1) S (SARS-CoV-2 (Kappa variant)) (UniProt P0DTC2). Described as above.

pIC50: −log10 of the molar value.

Regarding VHH-72 VHH-Fc (Fc fusion), the LVNA IC50 in assay [1] was determined as 1.86 nM. The pIC50 (as a rule, −log10 of the IC50, conventionally taken in molar units) in assay [2] was 7.98; in assay [3] it was 8.48; in assay [4] it was 8.07.
